A short description of this data set: label from the status in PepcDB records.
As for “MTRKQMKTLVNRLFIISTFLLTSVQSYANFIDISEQQINQYLATKLTEKFRMQDQIGIPGLFQLNYHLHNLTTQIGRTDANKVSLSGIIDGVLLLKGKSYDAQLNLNIDTTPYYDTKTGKLYLKDIRLLNYSASPEKYQDKLQAFLPLLVDGLSKMLNNTPIYTLDENKTQEALLKKFGKAIVIEQGKLSLQTALF”, the protein production entry is “failed”.
In the case of “MTRLAFVRKKEKNCGQCRICEVSCPMGIETENAEKYKGECISCIKCVEICPRYNMQLNFANQPVNPRYTSSLTVAGLFAVFSALSFLPSAKKIDTAKYNAIPSFADEDYQTDEENENINSSDNKQVETQQDYQAEIAQNNSQEANTSQNQISDQAQENAMTSKYQQNQSAAESYNSTETNQKSANVQSKTFEQAAENSQKTSLEKSQGSVQNSTYPVSSSNSSDESQQENVQANLSNATETSTQNFKVSNNTSETPKGISKIYKDGTYTGEGFGYRPGLVVEVTIKDDKITKIKIVSHNETQSFAQLPFEIIPQEIIQNQSTNVDIVSGATRTSYGIIMAVEDALNKAKIENESSLQN” it was “failed”; in that of “MTRNRRRIAFAAILAMATTAHAQQGQVLTTQDEIGGVYEGTFRGGLQHGTGTYRLPNGYEYSGEWVDGEIRGRGVARFPNGSVYEGSFAQGKPEGMGKITFSDGGTYEGEWSNGVINGQGVAVYANGVRYEGGFRDARHHGKGVMQSPGGYVYEGDWADGQKEGLGKITYPDGAVYEGGIVAGQRHGEGTLTLPDGLVYVGFWADGQINGKGTLTQANGDVYEGDLIAGRREGKGKVTYANGDVYQGDFTDDRREGQGIFTGTDGYSYAGSWVAGQIEGQGRVTYPDGSVYEGNFRADLADGQGKITYPDGSSYEGEWVAGVIEGTGTAIYANGIVYKGTFKNAKNHGQGVMTYADGYRYEGEWQDGVRHGQGKATYPDGSVYTGQYVNGQREGDGEIVMADGFRYKGQWQSGKISGIGVATYANGDIYEGHFRNGKRQGEGTMKYASGQEEKGNWDNGALTKGAAASDG”, “failed”.
To “MTRPLRWWKRACPGAALRRDVNAFPPPSLAKLSAVFTIRRQPELDRRPQGASAGGALQALIAALPFALRPSRLSRQAKRPWTRACRRRLPATVGAGSLAAMDSAQPNTAAARYKSFAAFYPFYMTEHANPVSRRLHVVGTSLVIVCLVLGVFRDWRFFIAAPVIGYGFAWIGHFVFEKNRPATFKYPVYSLMGDFRLWFETVTGRRKF” belongs “failed”.
In the case of “MTRPMPESIDERIKAALSKRGIDELYTHQYSAFQYVQKGESIVTVTPTASGKTLCYNLPVLQSIAQDETNRALYLFPTKALAQDQKSELNEIIDEMGIDIKSFTYDGDTSPAIRQKVRKAGHIVITNPDMLHSAILPHHTKWVSLFENLKYIVIDELHTYRGVFGSHVANVIRRLKRICRFYGSDPVFICTSATIANPKELGEQLTGKPMRLVDDNGAPSGRKHFVFYNPPIVNKPLNIRRSATAEVNELAKEFLKNKVQTIVFARSRVRVEIILSHIQELVKKEIGTKSIRGYRGGYLPKERREIERGLREGDILGVVSTNALELGVDIGQLQVCVMTGYPGSVASAWQQAGRAGRRHGESLIIMVANSTPIDQYIVRHPEYFFNRSPESARINPENLIILVDHLKCAAYELPFRADEEFGAMEVSDILEYLQEEAVLHRNGERYHWASESFPASNISLRSASQENVVIVDQSDIANVRIIGEMDRFSAMTLLHDEAIYLHEGVQYQVEKLDWDHKKAYVRKVDVEYYTDANLAVQLKVLEIDKTKEKSRTSLHYGDVTVNALPTIFKKIKMTTFENIGSGPIHLPEEELHTSAAWLEIKTADEDIGEKTLEQLLLGISNVLQHIVPVYIMCDRNDVHVVSQIKAAHTGLPTIFLYDHYPGGIGLAEEVFKRFSDINEAAKQLITHCPCHDGCPSCIGTEIEGIKAKERILQLLDQMSLEHHHHHH” it was “not failed”.
Take “MTRSEQNPVLFLAPDNVLWLLYTAQKSGNQDTAIVRYRQSTDLGATWGEIGTLLDQPGTFIRQPITVLENGDWLLPVFYCRVQPGEKWVGNDDDSAVKISSDQGKTWREYPVPNSTGCVHMNITPLQDGTLLALYRSRWADFIYQSRSTDGGKTWSEPVATDLPNNNSSIQVTTLKNGHLALVFNHMSAADATDRRLSLYDEIEDEEDKASGAKMPEVQAGDRSAFWGAPRAPMTLAISEDGGKSWPYQRNIEVGDGYCMTNNSTEKLNREFSYPSVKQAPDGKLHVAFTYFRQAIKHVVVSEEWVKAGLEHHHHHH”: the protein production result is “failed”.
“MTRSQTRPRRQALAEILGLMGLLVAGGLLAGQGGQTLARSVGGLGGASAPMPSRPWHGSNHTPLPSRGDGMAALDHNLITAASIGDLDLVNRLLKAGASAQATDERGRTALLAAVYNRRGDVMLVLIQAGADVNRKDDEGNSPFLLAAATNQIDVVRLALSHGADLNSTDRYDGTALIAASQHGNVEIVKLLISAGVPVDRVNQLGWTALLEAIILGDGSSRYEDIVQALLDAGADANLADREGVTPSRHARERGYKTMVRMLMRARGH”: the protein production entry is listed as “failed”.
Turning to “MTRSSNIPADATPNPHATAEQVAAARHDSKLAQVLYHDWEAENYDEKWSISYDQRCVDYARGRFDAIVPDEVIAQLPYDRALELGCGTGFFLLNLIQAGVARRGSVTDLSPGMVKVATRNGQALGLDIDGRVADAEGIPYDDDAFDLVVGHAVLHHIPDVELSLREVVRVLKPGGRFVFAGEPTTVGDGYARTLSTLTWRVVTNATKLPGLRGWRRPQGELDESSRAAALEALVDLHTFTPQDLQRIAHNAGAVEVQTATEEFTAAMLGWPLRTFECTVPPGRLGWGWARFAFTSWKTLGWVDANVWRHVVPKGWFYNVMITGVKPS”, the protein production result was “failed”.
In the case of “MTRTEYLAELDKYLRKLPREDYHEAMEYYIEYFDEAGPDKESQVIDDLGNPKEAASEIISNVLGKHLATPEKTPKNRATIIGLTILSLFAAPIALPVLLALILFIIACLMLGLTAIFAAYIFGLAGILVAGVTLFESLTLIGSSIPAQAMGIGSALLCFGGGLLIWIIATAFLRFSGRAFVAFIKWISNKKGAQA”, the protein production entry is given as “failed”.
Regarding “MTRVDVVTRTLPPNEVSEANPWDTDRFWTVPNVLSVIRLIGVPIFLWLALGPRADGWAVAVLAVAGLTDWLDGRIARRWHQVSRIGQMLDPVADRLYIFATVIALTLRDVIPLWLVIVLIARDVCMACLMPALRTRGFTSLPVHFVGKAATFCLLYSFPLVLLGRFGTGGWTACRVLGWAFAVWGTGLYWWAFFLYLVQTIRIVRTLPRISSRGEYS”, the protein production entry was “failed”.
To “MTRYGLRARVITLTLAPTLIIGLLLSGFFSFNRYQDLEKQVITTGNSIIEPLAIASESHLLAESREAVRRLISYAHRKNSKLVRSIAVFDEHHELFVTSNFHPNFEALMFPKDKPIPKLGNSEIYENSLILRVPILSEGHYLSELSNENQGTKAIGYIAVEMDLSSLRLQQYQEVFSAFLVLILGLGLASVFASRLMHDVTQPITHMKNVVDRIRRGHLDVRIEGKMHGELDQLKNGINAMAVSLSEYHVEMQHSIDQATSDLRETLEQLEIQNVELDIAKKRAQEAARVKSEFLANMSHELRTPLNGVIGFTRQMLKTQLSNSQTDYLQTIEKSANNLLNIINDILDFSKLEAGKLALENIPFDFRESLEEVINLQATSAHEKGLEITLKVDPKIPPGLVGDPLRIQQILTNLVGNSIKFTERGNIDVSVEMRSQAGDSVELQFMVRDTGIGISERQQAQLFQAFSQADASISRRYGGTGLGLVITQKLVSQMGGEISLTSRLHQGSTFWFTLRLNSTEMPMSDLIEVELLTGKQLLLVEPNMQAASVTQQILSQEGILVTYRSSLPENEEHYDYVLLNLAANQTYDEQSVAAWIEQAKRMAPSVIMGTPSTELALADQIMTEHQIQCLTKPLSRRKLLQSLINEHVEAPQAITAPVETEESERLPLTVLAVDDNPANLKLISALLKERVETVTACSNGQQAVNLATEKKYDLIFMDIQMPLMDGVTACQNIKELELNKDTPVIAVTAHAMAGERDRLLAAGMDDYLTKPIEEHVLQQVLVHWNPNTCTESIGKVAPSYVDEPESEAPATAENTQPDVIIDWQAALKQSANKEDLAKDMLRMLIDFIPEVEEVVDHALEQDDYSREELIHVIHKLHGSSSYCGVPRLKSLCATLEHALRSGASIEEIEPEMFELQDEMIKVTTTAKLYLEQ” belongs “failed”; to “MTSAQKPVFSPSDLQTWLEIATEAVLAAGAEIFSLWGKVQQIQEKGRAGDLVTEADRQAEAIILEIIKRRCPDHAILAEESGQLGQVDNPFCWAIDPLDGTTNFAHSYPVSCVSIGLLIQDIPTVGVVYNPFRQELFRAATSLGATLNRRPIQVSTTASLDKSLLVTGFAYDRVKTLDNNYPEFCYLTHLTQGVRRSGSAAIDLIDVACGRLDGYWERGINPWDMAAGIVIVREAGGIVSAYDCSPLDLSTGRILATNGKIHQELSQALAATPQWFQQYAAARAQKI”, “failed”.

For the origin of these results see a protein production outcome set (Wang et al. 2014).
